Test results: the RNAGym collection of RNA variant scans (doi:10.7554/elife.80360)

B1: Hammerhead Ribozyme (parent)
chain: ACCGGAUGUGCUUUCCGGUCUGAUGAGUCCGUGAGGACGAAACAG

Variants of: B1
Assay: self-cleavage, relative activity (ratio to wild type); higher = more cleavage; co-transcriptional

| Variant | self-cleavage |
| --- | --- |
| ACCGUAUGUGCUUUCCGGUCUGAUGAGUGCGUGAGGACGAAACAG [G5U C29G] | 0.434 |
| ACCGUAUGUGCUUUCCGGUCUGAUGAGUUCGUGAGGACGAAACAG [G5U C29U] | 0.682 |
| ACCGUAUGUGCUUUCCGGUCUGAUGAGUACGUGAGGACGAAACAG [G5U C29A] | 0.402 |
| ACCGUAUGUGCUUUCCGGUCUGAUGAGUCCGUGAGGACGAAACAG [G5U] | 0.934 |
| ACCGUAUGUGCUUUCCGGUCUGAUGAGUCCGUGAGGACGAAACCG [G5U A44C] | 0.515 |
| ACCGUAUGUGCUUUCCGGUCUGAUGAGUCCGUGAGGACGAAACGG [G5U A44G] | 0.918 |
| ACCGUAUGUGCUUUCCGGUCUGAUGAGUCCGUGAGGACGAAACUG [G5U A44U] | 0.391 |
| ACCGUAUGUGCUUUCCGGUCUGAUGAGUCCGUGACGACGAAACAG [G5U G35C] | 0.361 |
| ACCGUAUGUGCUUUCCGGUCUGAUGAGUCCGUGAUGACGAAACAG [G5U G35U] | 0.516 |
| ACCGUAUGUGCUUUCCGGUCUGAUGAGUCCGUGAAGACGAAACAG [G5U G35A] | 0.476 |
| ACCGUAUGUGCUUUCCGGUCUGAUGAGUCCGUGAGAACGAAACAG [G5U G36A] | 0.417 |
| ACCGUAUGUGCUUUCCGGUCUGAUGAGUCCGUGAGCACGAAACAG [G5U G36C] | 0.32 |
| ACCGUAUGUGCUUUCCGGUCUGAUGAGUCCGUGAGUACGAAACAG [G5U G36U] | 0.327 |
| ACCGUAUGUGCUUUGCGGUCUGAUGAGUCCGUGAGGACGAAACAG [G5U C15G] | 1.15 |
| ACCGUAUGUGCUUUUCGGUCUGAUGAGUCCGUGAGGACGAAACAG [G5U C15U] | 1.17 |
| ACCGUAUGUGCUUUACGGUCUGAUGAGUCCGUGAGGACGAAACAG [G5U C15A] | 1.43 |
| ACCGCAUGGGCUUUCCGGUCUGAUGAGUCCGUGAGGACGAAACAG [G5C U9G] | 0.467 |
| ACCGCAUGCGCUUUCCGGUCUGAUGAGUCCGUGAGGACGAAACAG [G5C U9C] | 0.63 |
| ACCGUAUGUGCUUUCCGGUCUGAUGAGUCCAUGAGGACGAAACAG [G5U G31A] | 1.25 |

| Variant | self-cleavage |
| --- | --- |
| ACCGUAUGUGCUUUCCGGUCUGAUGAGUCCCUGAGGACGAAACAG [G5U G31C] | 1.03 |
| ACCGUAUGUGCUUUCCGGUCUGAUGAGUCCUUGAGGACGAAACAG [G5U G31U] | 1.2 |
| ACCGCAUGUGCUAUCCGGUCUGAUGAGUCCGUGAGGACGAAACAG [G5C U13A] | 1.25 |
| ACCGCAUGUGCUGUCCGGUCUGAUGAGUCCGUGAGGACGAAACAG [G5C U13G] | 0.85 |
| ACCGCAUGUGCUCUCCGGUCUGAUGAGUCCGUGAGGACGAAACAG [G5C U13C] | 0.681 |
| ACCGUAUGUGCUUUCCGGUCUGAUAAGUCCGUGAGGACGAAACAG [G5U G25A] | 0.351 |
| ACCGUAUGUGCUUUCCGGUCUGAUUAGUCCGUGAGGACGAAACAG [G5U G25U] | 0.355 |
| ACCGUAUGUGCUUUCCGGUCUGAUCAGUCCGUGAGGACGAAACAG [G5U G25C] | 0.301 |
| ACCGUAUAUGCUUUCCGGUCUGAUGAGUCCGUGAGGACGAAACAG [G5U G8A] | 0.748 |
| ACCGUAUCUGCUUUCCGGUCUGAUGAGUCCGUGAGGACGAAACAG [G5U G8C] | 0.942 |
| ACCGUAUUUGCUUUCCGGUCUGAUGAGUCCGUGAGGACGAAACAG [G5U G8U] | 0.81 |
| ACCGUAUGUGCUUUCCGGUCUAAUGAGUCCGUGAGGACGAAACAG [G5U G22A] | 0.269 |
| ACCGUAUGUGCUUUCCGGUCUUAUGAGUCCGUGAGGACGAAACAG [G5U G22U] | 0.304 |
| ACCGUAUGUGCUUUCCGGUCUCAUGAGUCCGUGAGGACGAAACAG [G5U G22C] | 0.251 |
| ACCGUAUGUGUUUUCCGGUCUGAUGAGUCCGUGAGGACGAAACAG [G5U C11U] | 0.458 |
| ACCGUAUGUGGUUUCCGGUCUGAUGAGUCCGUGAGGACGAAACAG [G5U C11G] | 0.815 |
| ACCGUAUGUGAUUUCCGGUCUGAUGAGUCCGUGAGGACGAAACAG [G5U C11A] | 0.919 |
| ACCGUAUGUGCUUUCCUGUCUGAUGAGUCCGUGAGGACGAAACAG [G5U G17U] | 0.351 |
| ACCGUAUGUGCUUUCCCGUCUGAUGAGUCCGUGAGGACGAAACAG [G5U G17C] | 0.309 |

| Variant | self-cleavage |
| --- | --- |
| ACCGUAUGUGCUUUCCAGUCUGAUGAGUCCGUGAGGACGAAACAG [G5U G17A] | 0.337 |
| ACCGUAUGUGCUUUCCGGUCUGAUGAGUCCGUGAGGACGAAAAAG [G5U C43A] | 0.352 |
| ACCGUAUGUGCUUUCCGGUCUGAUGAGUCCGUGAGGACGAAAGAG [G5U C43G] | 0.335 |
| ACCGUAUGUGCUUUCCGGUCUGAUGAGUCCGUGAGGACGAAAUAG [G5U C43U] | 0.371 |
| ACCGCAUGUGCUUUCCGGUCGGAUGAGUCCGUGAGGACGAAACAG [G5C U21G] | 0.367 |
| ACCGCAUGUGCUUUCCGGUCAGAUGAGUCCGUGAGGACGAAACAG [G5C U21A] | 0.307 |
| ACCGCAUGUGCUUUCCGGUCCGAUGAGUCCGUGAGGACGAAACAG [G5C U21C] | 0.507 |
| ACCGUAUGUGCUUUCCGGUCUGAUGAUUCCGUGAGGACGAAACAG [G5U G27U] | 0.366 |
| ACCGUAUGUGCUUUCCGGUCUGAUGAAUCCGUGAGGACGAAACAG [G5U G27A] | 0.504 |
| ACCGUAUGUGCUUUCCGGUCUGAUGACUCCGUGAGGACGAAACAG [G5U G27C] | 0.491 |
| ACCGUAUGUGCUUUCCGGUCUGAUGAGUCCGUGAGGACGAACCAG [G5U A42C] | 0.327 |
| ACCGUAUGUGCUUUCCGGUCUGAUGAGUCCGUGAGGACGAAGCAG [G5U A42G] | 0.352 |
| ACCGUAUGUGCUUUCCGGUCUGAUGAGUCCGUGAGGACGAAUCAG [G5U A42U] | 0.323 |
| ACCGCAUGUGCUUUCCGGGCUGAUGAGUCCGUGAGGACGAAACAG [G5C U19G] | 0.281 |
| ACCGCAUGUGCUUUCCGGCCUGAUGAGUCCGUGAGGACGAAACAG [G5C U19C] | 0.269 |
| ACCGCAUGUGCUUUCCGGACUGAUGAGUCCGUGAGGACGAAACAG [G5C U19A] | 0.344 |
| ACCGUUUGUGCUUUCCGGUCUGAUGAGUCCGUGAGGACGAAACAG [G5U A6U] | 0.63 |
| ACCGUCUGUGCUUUCCGGUCUGAUGAGUCCGUGAGGACGAAACAG [G5U A6C] | 0.336 |
| ACCGUGUGUGCUUUCCGGUCUGAUGAGUCCGUGAGGACGAAACAG [G5U A6G] | 0.644 |
